This assay deals with PTHR1 receptor.

* marks the point of attachment. Palmitoyl = CCCCCCCCCCCCCCCC(=O)*

Chain of PTHR1 receptor (P25961 whole entry): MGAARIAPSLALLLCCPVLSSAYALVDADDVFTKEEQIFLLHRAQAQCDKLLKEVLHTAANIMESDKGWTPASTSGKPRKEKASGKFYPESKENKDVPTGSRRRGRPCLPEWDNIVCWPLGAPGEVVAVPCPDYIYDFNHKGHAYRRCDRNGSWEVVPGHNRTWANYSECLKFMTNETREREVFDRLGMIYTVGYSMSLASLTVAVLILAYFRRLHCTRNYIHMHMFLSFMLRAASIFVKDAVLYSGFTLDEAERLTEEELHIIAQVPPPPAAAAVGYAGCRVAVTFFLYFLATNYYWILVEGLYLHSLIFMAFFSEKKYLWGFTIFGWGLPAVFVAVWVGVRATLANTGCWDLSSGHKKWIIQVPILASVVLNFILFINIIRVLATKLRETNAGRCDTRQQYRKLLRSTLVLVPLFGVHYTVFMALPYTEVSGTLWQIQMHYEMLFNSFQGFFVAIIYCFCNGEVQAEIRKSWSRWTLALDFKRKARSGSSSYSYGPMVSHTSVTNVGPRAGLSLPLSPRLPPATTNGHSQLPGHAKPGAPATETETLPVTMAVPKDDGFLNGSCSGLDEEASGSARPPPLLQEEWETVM

B1: Compound 87 (peptide)
peptide: Palmitoyl-TNAGRSDTRQQYRKLLA-NH2
SMILES: CCCCCCCCCCCCCCCC(=O)N[C@H](C(=O)N[C@@H](CC(N)=O)C(=O)N[C@@H](C)C(=O)NCC(=O)N[C@@H](CCCNC(=N)N)C(=O)N[C@@H](CO)C(=O)N[C@@H](CC(=O)O)C(=O)N[C@H](C(=O)N[C@@H](CCCNC(=N)N)C(=O)N[C@@H](CCC(N)=O)C(=O)N[C@@H](CCC(N)=O)C(=O)N[C@@H](Cc1ccc(O)cc1)C(=O)N[C@@H](CCCNC(=N)N)C(=O)N[C@@H](CCCCN)C(=O)N[C@@H](CC(C)C)C(=O)N[C@@H](CC(C)C)C(=O)N[C@@H](C)C(N)=O)[C@@H](C)O)[C@@H](C)O
With B1, the Fold Shift of EC50 amounted to 4.1 fold and the Inhibition of Maximal Response is 8%.

B2: Compound 83 (peptide)
peptide: Palmitoyl-TNAGRSDTRQQYRKLLF-NH2
SMILES: CCCCCCCCCCCCCCCC(=O)N[C@H](C(=O)N[C@@H](CC(N)=O)C(=O)N[C@@H](C)C(=O)NCC(=O)N[C@@H](CCCNC(=N)N)C(=O)N[C@@H](CO)C(=O)N[C@@H](CC(=O)O)C(=O)N[C@H](C(=O)N[C@@H](CCCNC(=N)N)C(=O)N[C@@H](CCC(N)=O)C(=O)N[C@@H](CCC(N)=O)C(=O)N[C@@H](Cc1ccc(O)cc1)C(=O)N[C@@H](CCCNC(=N)N)C(=O)N[C@@H](CCCCN)C(=O)N[C@@H](CC(C)C)C(=O)N[C@@H](CC(C)C)C(=O)N[C@@H](Cc1ccccc1)C(N)=O)[C@@H](C)O)[C@@H](C)O
With B2, the Fold Shift of EC50 came out at 7 fold and the Inhibition of Maximal Response was -5.8%.

B3: Compound 90 (peptide)
peptide: Palmitoyl-TNAGRSDTRQQYRALL-NH2
SMILES: CCCCCCCCCCCCCCCC(=O)N[C@H](C(=O)N[C@@H](CC(N)=O)C(=O)N[C@@H](C)C(=O)NCC(=O)N[C@@H](CCCNC(=N)N)C(=O)N[C@@H](CO)C(=O)N[C@@H](CC(=O)O)C(=O)N[C@H](C(=O)N[C@@H](CCCNC(=N)N)C(=O)N[C@@H](CCC(N)=O)C(=O)N[C@@H](CCC(N)=O)C(=O)N[C@@H](Cc1ccc(O)cc1)C(=O)N[C@@H](CCCNC(=N)N)C(=O)N[C@@H](C)C(=O)N[C@@H](CC(C)C)C(=O)N[C@@H](CC(C)C)C(N)=O)[C@@H](C)O)[C@@H](C)O
On to B3, for which the Fold Shift of EC50 was determined as 2 fold and the Inhibition of Maximal Response is 21%.

B4: Compound 34 (peptide)
peptide: Palmitoyl-LYLHSLIFMAFFSEKKYLWGFT-NH2
SMILES: CCCCCCCCCCCCCCCC(=O)N[C@@H](CC(C)C)C(=O)N[C@@H](Cc1ccc(O)cc1)C(=O)N[C@@H](CC(C)C)C(=O)N[C@@H](Cc1c[nH]cn1)C(=O)N[C@@H](CO)C(=O)N[C@@H](CC(C)C)C(=O)N[C@H](C(=O)N[C@@H](Cc1ccccc1)C(=O)N[C@@H](CCSC)C(=O)N[C@@H](C)C(=O)N[C@@H](Cc1ccccc1)C(=O)N[C@@H](Cc1ccccc1)C(=O)N[C@@H](CO)C(=O)N[C@@H](CCC(=O)O)C(=O)N[C@@H](CCCCN)C(=O)N[C@@H](CCCCN)C(=O)N[C@@H](Cc1ccc(O)cc1)C(=O)N[C@@H](CC(C)C)C(=O)N[C@@H](Cc1c[nH]c2ccccc12)C(=O)NCC(=O)N[C@@H](Cc1ccccc1)C(=O)N[C@H](C(N)=O)[C@@H](C)O)[C@@H](C)CC
As for B4, the Fold Shift of EC50 is 1.2 fold and the Inhibition of Maximal Response came to 4.2%.

B5: Compound 92 (peptide)
peptide: Palmitoyl-TNAGRSDTRQQARKLL-NH2
SMILES: CCCCCCCCCCCCCCCC(=O)N[C@H](C(=O)N[C@@H](CC(N)=O)C(=O)N[C@@H](C)C(=O)NCC(=O)N[C@@H](CCCNC(=N)N)C(=O)N[C@@H](CO)C(=O)N[C@@H](CC(=O)O)C(=O)N[C@H](C(=O)N[C@@H](CCCNC(=N)N)C(=O)N[C@@H](CCC(N)=O)C(=O)N[C@@H](CCC(N)=O)C(=O)N[C@@H](C)C(=O)N[C@@H](CCCNC(=N)N)C(=O)N[C@@H](CCCCN)C(=O)N[C@@H](CC(C)C)C(=O)N[C@@H](CC(C)C)C(N)=O)[C@@H](C)O)[C@@H](C)O
B5: the Fold Shift of EC50 turned out to be 5 fold and the Inhibition of Maximal Response was 8.3%.

B6: Compound 85 (peptide)
peptide: Palmitoyl-TNAGRSDTRQQYRKLLFS-NH2
SMILES: CCCCCCCCCCCCCCCC(=O)N[C@H](C(=O)N[C@@H](CC(N)=O)C(=O)N[C@@H](C)C(=O)NCC(=O)N[C@@H](CCCNC(=N)N)C(=O)N[C@@H](CO)C(=O)N[C@@H](CC(=O)O)C(=O)N[C@H](C(=O)N[C@@H](CCCNC(=N)N)C(=O)N[C@@H](CCC(N)=O)C(=O)N[C@@H](CCC(N)=O)C(=O)N[C@@H](Cc1ccc(O)cc1)C(=O)N[C@@H](CCCNC(=N)N)C(=O)N[C@@H](CCCCN)C(=O)N[C@@H](CC(C)C)C(=O)N[C@@H](CC(C)C)C(=O)N[C@@H](Cc1ccccc1)C(=O)N[C@@H](CO)C(N)=O)[C@@H](C)O)[C@@H](C)O
Consider B6, for which the Fold Shift of EC50 was determined as 6.9 fold and the Inhibition of Maximal Response is 19.5%.

B7: Compound 88 (peptide)
peptide: Palmitoyl-TNAGRSDTRQQYRKLA-NH2
SMILES: CCCCCCCCCCCCCCCC(=O)N[C@H](C(=O)N[C@@H](CC(N)=O)C(=O)N[C@@H](C)C(=O)NCC(=O)N[C@@H](CCCNC(=N)N)C(=O)N[C@@H](CO)C(=O)N[C@@H](CC(=O)O)C(=O)N[C@H](C(=O)N[C@@H](CCCNC(=N)N)C(=O)N[C@@H](CCC(N)=O)C(=O)N[C@@H](CCC(N)=O)C(=O)N[C@@H](Cc1ccc(O)cc1)C(=O)N[C@@H](CCCNC(=N)N)C(=O)N[C@@H](CCCCN)C(=O)N[C@@H](CC(C)C)C(=O)N[C@@H](C)C(N)=O)[C@@H](C)O)[C@@H](C)O
As to B7, the Fold Shift of EC50 is 2.8 fold and the Inhibition of Maximal Response was -25%.

B8: Compound 84 (peptide)
peptide: Palmitoyl-TNAGRSDTRQQYRKLLK-NH2
SMILES: CCCCCCCCCCCCCCCC(=O)N[C@H](C(=O)N[C@@H](CC(N)=O)C(=O)N[C@@H](C)C(=O)NCC(=O)N[C@@H](CCCNC(=N)N)C(=O)N[C@@H](CO)C(=O)N[C@@H](CC(=O)O)C(=O)N[C@H](C(=O)N[C@@H](CCCNC(=N)N)C(=O)N[C@@H](CCC(N)=O)C(=O)N[C@@H](CCC(N)=O)C(=O)N[C@@H](Cc1ccc(O)cc1)C(=O)N[C@@H](CCCNC(=N)N)C(=O)N[C@@H](CCCCN)C(=O)N[C@@H](CC(C)C)C(=O)N[C@@H](CC(C)C)C(=O)N[C@@H](CCCCN)C(N)=O)[C@@H](C)O)[C@@H](C)O
Regarding B8, the Fold Shift of EC50 was determined as 9.1 fold and the Inhibition of Maximal Response is -25.2%.

B9: Compound 86 (peptide)
peptide: Palmitoyl-TNAGRSDTRQQYRKLLFA-NH2
SMILES: CCCCCCCCCCCCCCCC(=O)N[C@H](C(=O)N[C@@H](CC(N)=O)C(=O)N[C@@H](C)C(=O)NCC(=O)N[C@@H](CCCNC(=N)N)C(=O)N[C@@H](CO)C(=O)N[C@@H](CC(=O)O)C(=O)N[C@H](C(=O)N[C@@H](CCCNC(=N)N)C(=O)N[C@@H](CCC(N)=O)C(=O)N[C@@H](CCC(N)=O)C(=O)N[C@@H](Cc1ccc(O)cc1)C(=O)N[C@@H](CCCNC(=N)N)C(=O)N[C@@H](CCCCN)C(=O)N[C@@H](CC(C)C)C(=O)N[C@@H](CC(C)C)C(=O)N[C@@H](Cc1ccccc1)C(=O)N[C@@H](C)C(N)=O)[C@@H](C)O)[C@@H](C)O
On to B9, for which the Fold Shift of EC50 is 3.6 fold and the Inhibition of Maximal Response was determined as 5.2%.

B10: Compound 94 (peptide)
peptide: Palmitoyl-AGRSDTRQQYRKLLFA-NH2
SMILES: CCCCCCCCCCCCCCCC(=O)N[C@@H](C)C(=O)NCC(=O)N[C@@H](CCCNC(=N)N)C(=O)N[C@@H](CO)C(=O)N[C@@H](CC(=O)O)C(=O)N[C@H](C(=O)N[C@@H](CCCNC(=N)N)C(=O)N[C@@H](CCC(N)=O)C(=O)N[C@@H](CCC(N)=O)C(=O)N[C@@H](Cc1ccc(O)cc1)C(=O)N[C@@H](CCCNC(=N)N)C(=O)N[C@@H](CCCCN)C(=O)N[C@@H](CC(C)C)C(=O)N[C@@H](CC(C)C)C(=O)N[C@@H](Cc1ccccc1)C(=O)N[C@@H](C)C(N)=O)[C@@H](C)O
For B10, the Fold Shift of EC50 worked out at 18.7 fold and the Inhibition of Maximal Response was -24.4%.

B11: Compound 91 (peptide)
peptide: Palmitoyl-TNAGRSDTRQQYAKLL-NH2
SMILES: CCCCCCCCCCCCCCCC(=O)N[C@H](C(=O)N[C@@H](CC(N)=O)C(=O)N[C@@H](C)C(=O)NCC(=O)N[C@@H](CCCNC(=N)N)C(=O)N[C@@H](CO)C(=O)N[C@@H](CC(=O)O)C(=O)N[C@H](C(=O)N[C@@H](CCCNC(=N)N)C(=O)N[C@@H](CCC(N)=O)C(=O)N[C@@H](CCC(N)=O)C(=O)N[C@@H](Cc1ccc(O)cc1)C(=O)N[C@@H](C)C(=O)N[C@@H](CCCCN)C(=O)N[C@@H](CC(C)C)C(=O)N[C@@H](CC(C)C)C(N)=O)[C@@H](C)O)[C@@H](C)O
Regarding B11, the Fold Shift of EC50 is 2 fold and the Inhibition of Maximal Response is 9.8%.

B12: Compound 93 (peptide)
peptide: Palmitoyl-TNAGRSDTRQAYRKLL-NH2
SMILES: CCCCCCCCCCCCCCCC(=O)N[C@H](C(=O)N[C@@H](CC(N)=O)C(=O)N[C@@H](C)C(=O)NCC(=O)N[C@@H](CCCNC(=N)N)C(=O)N[C@@H](CO)C(=O)N[C@@H](CC(=O)O)C(=O)N[C@H](C(=O)N[C@@H](CCCNC(=N)N)C(=O)N[C@@H](CCC(N)=O)C(=O)N[C@@H](C)C(=O)N[C@@H](Cc1ccc(O)cc1)C(=O)N[C@@H](CCCNC(=N)N)C(=O)N[C@@H](CCCCN)C(=O)N[C@@H](CC(C)C)C(=O)N[C@@H](CC(C)C)C(N)=O)[C@@H](C)O)[C@@H](C)O
As to B12, the Fold Shift of EC50 was 13.4 fold and the Inhibition of Maximal Response is -67%.

B13: Compound 89 (peptide)
peptide: Palmitoyl-TNAGRSDTRQQYRKAL-NH2
SMILES: CCCCCCCCCCCCCCCC(=O)N[C@H](C(=O)N[C@@H](CC(N)=O)C(=O)N[C@@H](C)C(=O)NCC(=O)N[C@@H](CCCNC(=N)N)C(=O)N[C@@H](CO)C(=O)N[C@@H](CC(=O)O)C(=O)N[C@H](C(=O)N[C@@H](CCCNC(=N)N)C(=O)N[C@@H](CCC(N)=O)C(=O)N[C@@H](CCC(N)=O)C(=O)N[C@@H](Cc1ccc(O)cc1)C(=O)N[C@@H](CCCNC(=N)N)C(=O)N[C@@H](CCCCN)C(=O)N[C@@H](C)C(=O)N[C@@H](CC(C)C)C(N)=O)[C@@H](C)O)[C@@H](C)O
In the case of B13, the Fold Shift of EC50 was found to be 2.3 fold and the Inhibition of Maximal Response was -20.4%.
